In patent US20230295597:

T1: von Willebrand factor (vWF), substrate of the ADAMTS-13 activity assay, P04275
T1 chain: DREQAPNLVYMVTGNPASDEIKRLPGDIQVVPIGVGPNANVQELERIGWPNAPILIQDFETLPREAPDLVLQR


How the values were obtained:
[1] = biological target: ultralarge von Willebrand factor multimers present in human plasma, P04275
[2] = biological target: T1, von Willebrand factor (vWF), substrate …
[3] = biological target: anti ADAMTS-13 autoantibodies in plasma from patients with acquired ADAMTS-13 deficiency (TTP plasma)

Row | Protein | catalytic activity on vWF [2] | other results
1 | truncated recombinant human ADAMTS-13 variant (MDTCS), trADAMTS-13 WT (protein) RSAAGGILHLELLVAVGPDVFQAHQEDTERYVLTNLNIGAELLRDPSLGAQFRVHLVKMVILTEPEGAPNITANLTSSLLSVCGWSQTINPEDDTDPGHADLVLYITRFDLELPDGNRQVRGVTQLGGACSPTWSCLITEDTGFDLGVTIAHEIGHSFGLEHDGAPGSGCGPSGHVMASDGAAPRAGLAWSPCSRRQLLSLLSAGRARCVWDPPRPQPGSAGHPPDAQPGLYYSANEQCRVAFGPKAVACTFAREHLDMCQALSCHTDPLDQSSCSRLLVPLLDGTECGVEKWCSKGRCRSLVELTPIAAVHGRWSSWGPRSPCSRSCGGGVVTRRRQCNNPRPAFGGRACVGADLQAEMCNTQACEKTQLEFMSQQCARTDGQPLRSSPGGASFYHWGAAVPHSQGDALCRHMCRAIGESFIMKRGDSFLDGTRCMPSGPREDGTLSLCVSGSCRTFGCDGRMDSQQVWDRCQVCGGDNSTCSPRKGSFTAGRAREYVTFLTVTPNLTSVYIANHRPLFTHLAVRIGGRYVVAGKMSISPNTTYPSLLEDGRVEYRVALTEDRLPRLEEIRIWGPLQEDADIQVYRRYGEEYGNLTRPDITFTYFQPKPRQADYKDHDGDYKDHDIDYKDDDDK |  | proteolysis of vWF multimers in human plasma, trADAMTS-13 300 nM, Western blot with anti-vWF antibody [1]: the inactivation of trADAMTS-13 by tPA prevented the proteolysis of ULvWV multimers present in human plasma (FIG. 4D)
2 | trADAMTS-13^V313D (truncated ADAMTS-13 mutant, Val313 to Asp) (protein) AAGGILHLELLVAVGPDVFQAHQEDTERYVLTNLNIGAELLRDPSLGAQFRVHLVKMVILTEPEGAPNITANLTSSLLSVCGWSQTINPEDDTDPGHADLVLYITRFDLELPDGNRQVRGVTQLGGACSPTWSCLITEDTGFDLGVTIAHEIGHSFGLEHDGAPGSGCGPSGHVMASDGAAPRAGLAWSPCSRRQLLSLLSAGRARCVWDPPRPQPGSAGHPPDAQPGLYYSANEQCRDAFGPKAVACTFAREHLDMCQALSCHTDPLDQSSCSRLLVPLLDGTECGVEKWCSKGRCRSLVELTPIAAVHGRWSSWGPRSPCSRSCGGGVVTRRRQCNNPRPAFGGRACVGADLQAEMCNTQACEKTQLEFMSQQCARTDGQPLRSSPGGASFYHWGAAVPHSQGDALCRHMCRAIGESFIMKRGDSFLDGTRCMPSGPREDGTLSLCVSGSCRTFGCDGRMDSQQVWDRCQVCGGDNSTCSPRKGSFTAGRAREYVTFLTVTPNLTSVYIANHRPLFTHLAVRIGGRYVVAGKMSISPNTTYPSLLEDGRVEYRVALTEDRLPRLEEIRIWGPLQEDADIQVYRRYGEEYGNLTRPDITFTYFQPKPRQADYKDHDGDYKDHDIDYKDDDDK |  | decrease of proteolytic activity on vWF against the un-mutated variant [2]: replacing V^313 with D (trADAMTS-13^V313D) decreased by more than 50% the proteolytic activity of the resultant ADAMTS-13 variant on vWF (FIG. 6B)
3 | trADAMTS-13^R312A (truncated ADAMTS-13 mutant, Arg312 to Ala) (protein) AAGGILHLELLVAVGPDVFQAHQEDTERYVLTNLNIGAELLRDPSLGAQFRVHLVKMVILTEPEGAPNITANLTSSLLSVCGWSQTINPEDDTDPGHADLVLYITRFDLELPDGNRQVRGVTQLGGACSPTWSCLITEDTGFDLGVTIAHEIGHSFGLEHDGAPGSGCGPSGHVMASDGAAPRAGLAWSPCSRRQLLSLLSAGRARCVWDPPRPQPGSAGHPPDAQPGLYYSANEQCAVAFGPKAVACTFAREHLDMCQALSCHTDPLDQSSCSRLLVPLLDGTECGVEKWCSKGRCRSLVELTPIAAVHGRWSSWGPRSPCSRSCGGGVVTRRRQCNNPRPAFGGRACVGADLQAEMCNTQACEKTQLEFMSQQCARTDGQPLRSSPGGASFYHWGAAVPHSQGDALCRHMCRAIGESFIMKRGDSFLDGTRCMPSGPREDGTLSLCVSGSCRTFGCDGRMDSQQVWDRCQVCGGDNSTCSPRKGSFTAGRAREYVTFLTVTPNLTSVYIANHRPLFTHLAVRIGGRYVVAGKMSISPNTTYPSLLEDGRVEYRVALTEDRLPRLEEIRIWGPLQEDADIQVYRRYGEEYGNLTRPDITFTYFQPKPRQADYKDHDGDYKDHDIDYKDDDDK | trADAMTS-13^R312A catalytic activity was not affected significantly by replacing R^312 with A (FIG. 6B) | 
4 | trADAMTS-13^V313A (truncated ADAMTS-13 mutant, Val313 to Ala) (protein) AAGGILHLELLVAVGPDVFQAHQEDTERYVLTNLNIGAELLRDPSLGAQFRVHLVKMVILTEPEGAPNITANLTSSLLSVCGWSQTINPEDDTDPGHADLVLYITRFDLELPDGNRQVRGVTQLGGACSPTWSCLITEDTGFDLGVTIAHEIGHSFGLEHDGAPGSGCGPSGHVMASDGAAPRAGLAWSPCSRRQLLSLLSAGRARCVWDPPRPQPGSAGHPPDAQPGLYYSANEQCRAAFGPKAVACTFAREHLDMCQALSCHTDPLDQSSCSRLLVPLLDGTECGVEKWCSKGRCRSLVELTPIAAVHGRWSSWGPRSPCSRSCGGGVVTRRRQCNNPRPAFGGRACVGADLQAEMCNTQACEKTQLEFMSQQCARTDGQPLRSSPGGASFYHWGAAVPHSQGDALCRHMCRAIGESFIMKRGDSFLDGTRCMPSGPREDGTLSLCVSGSCRTFGCDGRMDSQQVWDRCQVCGGDNSTCSPRKGSFTAGRAREYVTFLTVTPNLTSVYIANHRPLFTHLAVRIGGRYVVAGKMSISPNTTYPSLLEDGRVEYRVALTEDRLPRLEEIRIWGPLQEDADIQVYRRYGEEYGNLTRPDITFTYFQPKPRQADYKDHDGDYKDHDIDYKDDDDK | Replacing V^313 with A (trADAMTS-13^V313A), also had no significant effect on its proteolytic activity on vWF (FIG. 6B) | 
5 | trADAMTS-13^R312K (truncated ADAMTS-13 mutant, Arg312 to Lys) (protein) AAGGILHLELLVAVGPDVFQAHQEDTERYVLTNLNIGAELLRDPSLGAQFRVHLVKMVILTEPEGAPNITANLTSSLLSVCGWSQTINPEDDTDPGHADLVLYITRFDLELPDGNRQVRGVTQLGGACSPTWSCLITEDTGFDLGVTIAHEIGHSFGLEHDGAPGSGCGPSGHVMASDGAAPRAGLAWSPCSRRQLLSLLSAGRARCVWDPPRPQPGSAGHPPDAQPGLYYSANEQCKVAFGPKAVACTFAREHLDMCQALSCHTDPLDQSSCSRLLVPLLDGTECGVEKWCSKGRCRSLVELTPIAAVHGRWSSWGPRSPCSRSCGGGVVTRRRQCNNPRPAFGGRACVGADLQAEMCNTQACEKTQLEFMSQQCARTDGQPLRSSPGGASFYHWGAAVPHSQGDALCRHMCRAIGESFIMKRGDSFLDGTRCMPSGPREDGTLSLCVSGSCRTFGCDGRMDSQQVWDRCQVCGGDNSTCSPRKGSFTAGRAREYVTFLTVTPNLTSVYIANHRPLFTHLAVRIGGRYVVAGKMSISPNTTYPSLLEDGRVEYRVALTEDRLPRLEEIRIWGPLQEDADIQVYRRYGEEYGNLTRPDITFTYFQPKPRQADYKDHDGDYKDHDIDYKDDDDK | trADAMTS-13^R312K was the most potent variant exhibiting enhanced proteolytic activity on vWF (FIG. 6B), in comparison with the un-mutated protein trADAMTS-13 WT | proteolytic activity on vWF after 2 hours or 24 hours with TTP plasma [3]: The substantial resistance to inhibition of trADAMTS-13^R312K was shown around 2 hours up to 24 hours following incubation with TTP plasma (FIG. 9B)
